T1: LIR[Sp] peptide
T1 chain: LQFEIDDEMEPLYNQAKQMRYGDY

B1: GABARAP (purified, for ITC) F62W (protein)
chain: MKFVYKEEHPFEKRRSEGEKIRKKYPDRVPVIVEKAPKARIGDLDKKKYLVPSDLTVGQFYWLIRKRIHLRAEDALFFFVNNVIPPTSATMGQLYQEHHEEDFFLYIAYSDESVYG

Columns and labels:
Test in all cases: ITC
[1] = biological target: GABARAPL2 (purified, for ITC) (human)
LC3B (purified, for ITC) = biological target: LC3B (purified, for ITC)
[2] = biological target: GABARAP (purified, for ITC) (human)
LC3C (purified, for ITC) = biological target: LC3C (purified, for ITC)
[3] = biological target: GABARAPL1 (purified, for ITC)
LIR[Sp] peptide = biological target: T1, LIR[Sp] peptide; settings: chain shown with the change

Chain of GABARAPL2 (purified, for ITC) (human) (P60520 1-116): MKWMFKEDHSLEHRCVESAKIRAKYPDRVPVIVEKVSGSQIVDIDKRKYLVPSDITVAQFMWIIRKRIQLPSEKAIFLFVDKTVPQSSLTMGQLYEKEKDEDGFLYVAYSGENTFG

| Binder | Kd [1] | Kd (LC3B (purified, for ITC)) | Kd [2] | Kd (LC3C (purified, for ITC)) | Kd [3] | Kd (LIR[Sp] peptide) |
| --- | --- | --- | --- | --- | --- | --- |
| DGTLIIDLPDSY [LIR(TP[T]) peptide] | > 132 µM | > 132 µM | > 132 µM | 26.9 µM | > 132 µM |  |
| B1 |  |  |  |  |  | 0.629 µM |

Source: publication PMC10240976
